Results published in publication PMC1874611 (Nucleic Acids Research, 2007).
Each block holds one binder with its values, some of them ahead of it.

What was measured:
[1] = biological target: T1, chimeric GST-CycT1 (GST-T1; aa 1–292) (UniProt O60563 1-292); experiment: pull-down
[2] = biological target: T1, chimeric GST-CycT1 (GST-T1; aa 1–292); experiment: stopped-flow fluorescence

T1 sequence (O60563 1-292, change not shown): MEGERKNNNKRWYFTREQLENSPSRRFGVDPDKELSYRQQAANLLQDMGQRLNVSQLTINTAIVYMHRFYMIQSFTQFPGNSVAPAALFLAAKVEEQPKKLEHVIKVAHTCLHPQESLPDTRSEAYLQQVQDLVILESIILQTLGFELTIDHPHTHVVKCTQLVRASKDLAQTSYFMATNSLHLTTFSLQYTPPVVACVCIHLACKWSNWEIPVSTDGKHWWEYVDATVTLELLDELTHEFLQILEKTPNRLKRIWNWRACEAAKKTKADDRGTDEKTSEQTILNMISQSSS

binding result [1]: binds
B1: CycT1-binding domain of HEXIM1 (HEXIM1-TBD; aa 255–359) (domain or fragment)
chain: MGGDGSEFLQRDFSETYERYHTESLQNMSKQELIKEYLELEKCLSRMEDENNRLRLESKRLGGDDARVRELELELDRLRAENLQLLTENELHRQQERAPLSKFGD

binding result [2]: binds
B2: fluorescently labeled HEXIM1-TBD (HEXIM1-TBD*) (domain or fragment)
chain: B1 chain
modifications: dansyl-based fluorophore (position not given)
